From patent US20210188980A1 (SHANGHAI EPIMAB BIOTHERAPEUTICS, published 2021) come the findings set out here.

The term Kd denotes the free concentration of one partner at which half of the binding sites on the other are occupied at equilibrium, for simple one-to-one binding. The koff is the rate constant with which the complex falls apart. By kon is commonly meant a measure of how fast the partners come together.

For experiment [1], the target named is Cyno PD-1-His (cynomolgus, UniProt B0LAJ3 25-170). As to the kind of experiment: BLI Octet, FIT-Ig captured, antigen analyte. On the technique in general: In BLI a coated tip is dipped into the sample, and binding shifts an interference pattern.
Cyno PD-1-His, sequence (B0LAJ3 entry or part of it limits assumed): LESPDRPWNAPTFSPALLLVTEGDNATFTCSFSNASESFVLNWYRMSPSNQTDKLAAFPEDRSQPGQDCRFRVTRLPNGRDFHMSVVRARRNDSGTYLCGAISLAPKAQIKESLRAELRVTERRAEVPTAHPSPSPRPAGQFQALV
Experiment [2] addresses T1, recombinant human LAG-3-his protein (Novoprotein) (human, UniProt P18627 23-450).
T1 construct: Bought; also called huLAG-3; not shown: His tag
T1 sequence (looked up): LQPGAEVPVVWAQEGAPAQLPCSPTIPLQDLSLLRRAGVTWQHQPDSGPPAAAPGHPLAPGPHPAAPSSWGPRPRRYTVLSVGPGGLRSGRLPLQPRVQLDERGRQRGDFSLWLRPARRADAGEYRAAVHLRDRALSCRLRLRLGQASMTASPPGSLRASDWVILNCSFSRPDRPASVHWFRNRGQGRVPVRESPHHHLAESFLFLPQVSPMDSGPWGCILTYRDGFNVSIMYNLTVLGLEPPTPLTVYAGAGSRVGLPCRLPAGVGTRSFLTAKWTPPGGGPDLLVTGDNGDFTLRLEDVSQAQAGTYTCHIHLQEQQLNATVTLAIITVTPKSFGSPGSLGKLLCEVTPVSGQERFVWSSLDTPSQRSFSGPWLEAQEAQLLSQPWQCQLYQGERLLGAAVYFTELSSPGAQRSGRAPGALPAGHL
As to the kind of experiment: BLI Octet, FIT-Ig captured, antigen analyte.

In experiment [3] the target is Cyno LAG-3-His (cynomolgus). Nature of the experiment: BLI Octet, FIT-Ig captured, antigen analyte.
Experiment [4] addresses T2, human PD-1-His protein (human, UniProt Q15116 25-167, limits assumed).
T2 construct: also called huPD-1; not shown: His tag
As to the kind of experiment: BLI Octet, FIT-Ig captured, antigen analyte.

Experiment [5] concerns the target T1, recombinant human LAG-3-his protein …. Nature of the experiment: BLI Octet, Ab on AHC sensor, huLAG-3-his; test group 3. The protocol: (§1) All 18 humanized antibodies (Table 34) and a chimeric antibody having the parental murine VH and VL domains (mAb747c) were ranked by dissociation rate constant (koff). Briefly, antibodies were characterized for affinities and binding kinetics by Octet®RED96 biolayer interferometry (Pall ForteBio LLC). Antibodies were captured by Anti-hIgG Fc Capture (AHC) Biosensors (Pall) at a concentration of 100 nM for 30 seconds. Sensors were then dipped into running buffer (1× pH7.2 PBS, 0.05% Tween 20, 0.1% BSA) for 60 seconds to check baseline. Binding was measured by dipping sensors into a single concentration of recombinant human LAG-3-his protein (Novoprotein). Dissociation was followed by dipping sensors into running buffer for 1200 seconds. The association and dissociation curves were fitted to a 1:1 Langmuir binding model using FortéBio Data Analysis software (Pall). In each test group, the off-rates of antibodies were able to be compared with that of mAb747c. The off-rate ratios were calculated by the off-rate of antibody to that of mAb747c of its group and were compared all together. The lower the ratio was, the higher was the affinity of the antibody.

For experiment [6] the target is unchanged. Nature of the experiment: BLI Octet, Ab on AHC sensor, huLAG-3-his; test group 1. The procedure: as §1, with “9” for “18”, “25)” for “34)”, “Octet RED96” for “Octet®RED96”, “FortéBio” for “ForteBio”, “Anti-HIgG” for “Anti-hIgG”, “(Pall).” for “(Pall). In each test group, the off-rates of antibodies were able to be compared with that of mAb747c. The off-rate ratios were calculated by the off-rate of antibody to that of mAb747c of its group and were compared all together. The lower the ratio was, the higher was the affinity of the antibody.”
(§2) All 13 humanized antibodies (Table 39) and chimeric anti-LAG-3 antibody mAb747c having the parental murine VH and VL domains were ranked by dissociation rate constant (koff) in the same manner described in Example 9.1 supra. In each test group, the off-rates of antibodies were able to be compared with that of mAb747c. The off-rate ratios were calculated by the off-rate of antibody to that of mAb747c of its group and were compared all together. The lower the ratio was, the higher was the affinity of the antibody.

For experiment [7] the target is unchanged. As to the kind of experiment: BLI Octet, Ab on AHC sensor, huLAG-3-his; test group 2. The procedure:
as §1, with “9” for “18”, “25)” for “34)”, “Octet RED96” for “Octet®RED96”, “FortéBio” for “ForteBio”, “Anti-HIgG” for “Anti-hIgG”, “(Pall).” for “(Pall). In each test group, the off-rates of antibodies were able to be compared with that of mAb747c. The off-rate ratios were calculated by the off-rate of antibody to that of mAb747c of its group and were compared all together. The lower the ratio was, the higher was the affinity of the antibody.”
as §2

Positions count from the first letter of the chain named. Numbers in names are those of the source.

T2 sequence (Q15116 25-167 limits assumed): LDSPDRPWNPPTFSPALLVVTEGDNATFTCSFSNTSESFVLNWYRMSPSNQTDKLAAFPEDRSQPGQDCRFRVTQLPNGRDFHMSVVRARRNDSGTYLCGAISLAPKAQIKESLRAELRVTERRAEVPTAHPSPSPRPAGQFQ

B1: FIT107-1-6a-2 (bispecific antibody, human IgG1, kappa, L234A L235A)
chain 1: not shown
chain 2: EVQLVESGGGLVQPGGSLRLSCAASGFTFSFYTMSWVRQAPGKGLEWVATISGGGRDTYYPDSVKGRFTISRDNAKNSLYLQMNSLRAEDTAVYYCAGQGGNYLFAYWGQGTLVTVSSASTKGPSVFPLAPSSKSTSGGTAALGCLVKDYFPEPVTVSWNSGALTSGVHTFPAVLQSSGLYSLSSVVTVPSSSLGTQTYICNVNHKPSNTKVDKKVEPKSC
chain 3: DIQMTQSPSSLSASVGDRVTITCRASQEISGYLSWLQQKPGGAIKRLIYAASALDLGVPSRFSGSRSGSDYTLTISSLQPEDFADYYCLQYASYPLTFGQGTKLELKRTVAAPSVFIFPPSDEQLKSGTASVVCLLNNFYPREAKVQWKVDNALQSGNSQESVTEQDSKDSTYSLSSTLTLSKADYEKHKVYACEVTHQGLSSPVTKSFNRGEC
notes: FIT-Ig hexamer; outer anti-PD-1 (HumAb709-8), inner anti-LAG-3 (HumAb747V-72 with G55A)
Regarding B1, the Kd in experiment [1] was determined as 3.49 nM; in experiment [2], 1.02 nM; in experiment [3] it was 0.428 nM; in experiment [4], 1.28 nM. Also, the koff in experiment [1] worked out at 0.00107 s⁻¹; in experiment [2], 0.000117 s⁻¹; in experiment [3], 8.17e-05 s⁻¹; in experiment [4] it was 0.000239 s⁻¹. Also, the kon in experiment [1] was 306000 M⁻¹ s⁻¹; in experiment [2], 115000 M⁻¹ s⁻¹; in experiment [3], 191000 M⁻¹ s⁻¹; in experiment [4] it was 187000 M⁻¹ s⁻¹.

B2: HumAb747-55 (antibody, human IgG1, V domains shown)
VH: EVQLVQSGAEVKKPGATVKISCKVSDFNIKDDYMHWVQQAPGKGLEWIGWIVPENGNTEYASKFQGRVTITADTSTDTAYLELSSLRSEDTAVYYCTVYGDYWGQGTTVTVSS
VL: DIQMTQSPSSLSASVGDRVTITCRASQEISGYLSWLQQKPGGAIKRLIYAASTLDSGVPSRFSGSRSGSDYTLTISSLEPEDFADYYCLQYASYPLTFGQGTKLELK
notes: humanized mAb747; human IgG1/kappa constant domains
Take B2: in experiment [5], the koff is 0.0119 s⁻¹ and the “off-rate ratio to that of mAb747c” value worked out at 972%.

B3: HumAb747V-63 (antibody, human IgG1, V domains shown)
VH: EVQLVQSGAEVKKPGATVKLSCTASGFNIKDDYMHWVKQRPEQGLDWIGWIVPRNGNTMYASKFQGKATITADTSTNTAYLELSSLRSEDTAVYYCTVYGDYWGQGTTVTVSS
VL: B2 VL with T53A, E79Q
notes: engineered HumAb747-60 variant; human IgG1/kappa constant domains
Turning to B3, in experiment [6], the koff stood at 0.000522 s⁻¹ and the “off-rate ratio to that of mAb747c” value turned out to be 85%.

B4: HumAb747V-64 (antibody, human IgG1, V domains shown)
VH: B3 VH
VL: B2 VL with T53A, S56L, E79Q
notes: as for B3
On to B4, for which, in experiment [6], the koff was determined as 0.00045 s⁻¹ and the “off-rate ratio to that of mAb747c” value turned out to be 73%.

B5: HumAb747-58 (antibody, human IgG1, V domains shown)
VH: B2 VH with I20L, K23T, V24A, Q38K, V68A, D77N
VL: B2 VL
notes: as for B2
For B5, in experiment [5], the koff was 0.00405 s⁻¹ and the “off-rate ratio to that of mAb747c” value is 331%.

B6: HumAb747-57 (antibody, human IgG1, V domains shown)
VH: B2 VH with I20L, K23T, V24A
VL: B2 VL
notes: as for B2
With B6, in experiment [5], the koff stood at 0.00411 s⁻¹ and the “off-rate ratio to that of mAb747c” value was found to be 335%.

B7: HumAb747-56 (antibody, human IgG1, V domains shown)
VH: B2 VH with I20L, V24A
VL: B2 VL
notes: as for B2
For B7, in experiment [5], the off-rate (koff) came out at 0.00431 s⁻¹ and the “off-rate ratio to that of mAb747c” value was found to be 352%.

B8: HumAb747V-72 (antibody, human IgG1, V domains shown)
VH: B3 VH with M59V
VL: B2 VL with T53A, S56L, E79Q
notes: as for B3
With B8, in experiment [7], the koff stood at 0.000247 s⁻¹ and the “off-rate ratio to that of mAb747c” value was 37%.

B9: HumAb747V-66 (antibody, human IgG1, V domains shown)
VH: B3 VH with R54E, M59V
VL: B2 VL with S56L, E79Q
notes: as for B3
Turning to B9, in experiment [6], the koff came to 0.000584 s⁻¹ and the “off-rate ratio to that of mAb747c” value was 95%.

B10: HumAb747V-65 (antibody, human IgG1, V domains shown)
VH: B3 VH
VL: B2 VL with E79Q
notes: as for B3
For the molecule B10, in experiment [6], the koff is 0.000292 s⁻¹ and the “off-rate ratio to that of mAb747c” value worked out at 47%.

B11: HumAb747V-62 (antibody, human IgG1, V domains shown)
VH: B3 VH
VL: B2 VL with S56L, E79Q
notes: as for B3
In the case of B11, in experiment [6], the koff was determined as 0.00048 s⁻¹ and the “off-rate ratio to that of mAb747c” value turned out to be 78%.

B12: HumAb747V-70 (antibody, human IgG1, V domains shown)
VH: B3 VH with M59V
VL: B2 VL with S56L, E79Q
notes: as for B3
Take B12: in experiment [7], the koff came out at 0.000273 s⁻¹ and the “off-rate ratio to that of mAb747c” value came out at 40%.

B13: HumAb747V-71 (antibody, human IgG1, V domains shown)
VH: B3 VH with M59V
VL: B2 VL with T53A, E79Q
notes: as for B3
On to B13, for which, in experiment [7], the koff was 0.000292 s⁻¹ and the “off-rate ratio to that of mAb747c” value is 43%.

B14: HumAb747V-69 (antibody, human IgG1, V domains shown)
VH: B3 VH with R54E, M59V
VL: B2 VL with E79Q
notes: as for B3
In the case of B14, in experiment [7], the koff came out at 0.000357 s⁻¹ and the “off-rate ratio to that of mAb747c” value amounted to 53%.

B15: HumAb747V-68 (antibody, human IgG1, V domains shown)
VH: B3 VH with R54E, M59V
VL: B2 VL with T53A, S56L, E79Q
notes: as for B3
B15: in experiment [7], the koff was 0.000295 s⁻¹ and the “off-rate ratio to that of mAb747c” value was found to be 41%.

B16: FIT107-1-7b-3 (bispecific antibody, human IgG1, kappa, L234A L235A)
chain 1: not shown
chain 2: EVQLVQSGAEVKKPGATVKLSCTASGFNIKDDYMHWVKQRPEQGLDWIGWIVPRNANTVYASKFQGKATITADTSTNTAYLELSSLRSEDTAVYYCTVYGDYWGQGTTVTVSSASTKGPSVFPLAPSSKSTSGGTAALGCLVKDYFPEPVTVSWNSGALTSGVHTFPAVLQSSGLYSLSSVVTVPSSSLGTQTYICNVNHKPSNTKVDKKVEPKSC
chain 3: not shown
notes: FIT-Ig hexamer; outer anti-LAG-3 (HumAb747V-73 with G55A), inner anti-PD-1 (HumAb713-7)
With B16, the dissociation constant Kd amounted to 3.71 nM in experiment [1], 2.28 nM in experiment [2], 0.167 nM in experiment [3] and 8.86 nM in experiment [4]. In addition, the koff in experiment [1] worked out at 0.000919 s⁻¹; in experiment [2] it was 0.000328 s⁻¹; in experiment [3] it was 4.7e-05 s⁻¹; in experiment [4], 0.00103 s⁻¹. Also, the on-rate (kon) in experiment [1] is 248000 M⁻¹ s⁻¹; in experiment [2], 144000 M⁻¹ s⁻¹; in experiment [3], 281000 M⁻¹ s⁻¹; in experiment [4] it was 116000 M⁻¹ s⁻¹.
